Test results as given in patent publication US20250296984A1, “THERAPEUTIC AND DIAGNOSTIC AGENTS AND USES THEREOF” (priority 2022, published 2025).

Molecular target: T1, US28 protein on CHO-US28-A1 cells (Human cytomegalovirus, UniProt P69332, D170N/D19A)
T1 construct: expressed in transfected cells; host or cells: CHO-K1 (vector pCDH-EF1a-MCS)
Assay: Flow cytometry (FACS) surface binding to CHO-US28-A1 cells
Design: species or system human cytomegalovirus (HCMV)
Conditions: recombinant antibody (rAb), FIG. 7
Source text: FIG. 2. Flowcytometry analysis showing surface binding of the US28-13-5G6-1D3 antibody clone on CHO-US28-A1 cells. From the left, blank control, 2nd antibody control and clone US28-13-5G6-1D3 Ab binding on the surface of the CHO-US28-A1 cells.
FIG. 3. The positive surface binding of the clone US28-13-5G6-1D3 on CHO-US28-A1 cells was further validated by gradient dilution in FACS analysis. From the left, the clone US28-13-5G6-1D3 Ab surface binding to the CHO-US28-A1 cells in dilutions 1:20, 1:50, 1:200 (w/v).
FIG. 4. The positive surface binding of the clone US28-13-5G6-1D3 on CHO-US28-A1 cells was compared with the US28 negative CHO control cells. The clone US28-13-5G6-1D3 Ab bound 15-fold more to the surface of the US28 positive CHO-US28-A1 cells than to the US28 negative CHO cells in 1:50 (w/v).
FIG. 7. […] The surface binding of the 13-5G6-1D3 rAb to CHO cells was only measured in 1:10 dilution (w/v) and was 0.77% after removing the binding to blank and anti-mouse IgG-Alexa 488 secondary Ab controls. […]
In a further embodiment, it is preferred that a binding molecule of the present invention binds preferentially to US28-expressing cells (such as CHO cells engineered to express US28) compared to its binding of US28-negative cells (such as wildtype CHO cells), for example, at a 1:50 (w/v) dilution, for example as determined by flow cytometry assay. […]

B1: 13-5G6-1D3 rAb: recombinant antibody product of US28-13-5G6-1D3 produced in HEK293-F cells (antibody)
heavy: EVKLVESGGGLVQPGGSLRLACATSGFTFTDYYMSWVRQPPGKALEWLGFIRSKANGYTTEYSASVKGRFTISRDNSQSILYLQMNTLRSEDSATYYCARDERRTAWLAYWGQGTLVTVSAAKTTPPSVYPLAPGSAAQTNSMVTLGCLVKGYFPEPVTVTWNSGSLSSGVHTFPAVLQSDLYTLSSSVTVPSSTWPSETVTCNVAHPASSTKVDKKIVPRDCGCKPCICTVPEVSSVFIFPPKPKDVLTITLTPKVTCVVVDISKDDPEVQFSWFVDDVEVHTAQTQPREEQFNSTFRSVSELPIMHQDWLNGKEFKCRVNSAAFPAPIEKTISKTKGRPKAPQVYTIPPPKEQMAKDKVSLTCMITDFFPEDITVEWQWNGQPAENYKNTQPIMDTDGSYFIYSKLNVQKSNWEAGNTFTCSVLHEGLHNHHTEKSLSHSPGK
light: DVLMTQTPLSLPVSLGDQASISCRSSQSIVHSNGNTYLDWYLQKPGQSPKLLIYKVSNRFSGVPDRFSGSGSGTDFTLKISRVEAEDLGVYYCFQGSHVPTWTFGGGTKLEIKRADAAPTVSIFPPSSEQLTSGGASVVCFLNNFYPKDINVKWKIDGSERQNGVLNSWTDQDSKDSTYSMSSTLTLTKDEYERHNSYTCEATHKTSTSPIVKSFNRNEC
For B1, the “fold more surface binding on CHO-US28-A1 cells than to normal CHO cells” value was greater than 21 fold.
